Positions count from the first letter of the chain named. Names may count otherwise. “And” between values parts separate entries of the source, which are not always exact repeats. Equal values may be shown once.
Legend:
[1] = molecular target: the molecule itself; assay: mass photometry; free enzyme, 500 nM, 30 mM HEPES buffer, pH 7.5, 20 °C; histograms fitted to the sum of five Gaussian distributions
[2] = molecular target: the molecule itself; assay: not stated; oligomeric state under all conditions of the kinetic experiments (Fig. S8); method not given
[3] = molecular target: the molecule itself; assay: mass photometry; in the presence of substrates, under the reaction conditions; fitted globally with the kinetic data (association constants monomer to trimer K_(a,3E), hexamer K_(a,6E), higher oligomers K_(a,agg))

B1: fluorinase FlA1 from Streptomyces sp. strain MA37 (5'-fluoro-5'-deoxyadenosine synthase), wild type (enzyme, UniProt W0W999 1-299, looked up)
chain: MAANGSQRPIIAFMSDLGTTDDSVAQCKGLMHSICPGVTVVDVCHSMTPWDVEEGARYIVDLPRFFPEGTVFATTTYPATGTTTRSVAVRIRQAAKGGARGQWAGSGDGFERADGSYIYIAPNNGLLTTVLEEHGYIEAYEVTSTKVIPANPEPTFYSREMVAIPSAHLAAGFPLAEVGRRLDDSEIVRFHRPAVEISGEALSGVVTAIDHPFGNIWTNIHRTDLEKAGIGQGKHLKIILDDVLPFEAPLTPTFADAGAIGNIAFYLNSRGYLSLARNAASLAYPYNLKAGLKVRVEAR
notes: fluorinase FlA1 (5'-fluoro-5'-deoxyadenosine synthase), Streptomyces sp. strain MA37; Exists as trimers, hexamers and higher oligomers; also called wild-type FlA1; wild-type fluorinase; source: overexpressed in Escherichia coli, purified
stoichiometry N [1]: 3 and 6

B2: fluorinase FlA1 variant C44T (enzyme, Streptomyces sp. strain MA37, UniProt W0W999 1-299, looked up)
chain: B1 chain with C44T
notes: fluorinase FlA1, Streptomyces sp. strain MA37, with C44T; everywhere else C44T; also called FlA1+C44T
stoichiometry N [2]: 6

B3: fluorinase FlA1 variant W50F (enzyme, Streptomyces sp. strain MA37, UniProt W0W999 1-299, looked up)
chain: B1 chain with W50F
notes: fluorinase FlA1, Streptomyces sp. strain MA37, wild type with W50F
binding result [3]: binds

B4: fluorinase FlA1 variant A279R (enzyme, Streptomyces sp. strain MA37, UniProt W0W999 1-299, looked up)
chain: B1 chain with A279R
notes: fluorinase FlA1, Streptomyces sp. strain MA37, wild type with A279R
stoichiometry N [3]: 6

B5: fluorinase FlA1 double mutant W50F+A279R (enzyme, Streptomyces sp. strain MA37, UniProt W0W999 1-299, looked up)
chain: B1 chain with W50F, A279R
notes: fluorinase FlA1, Streptomyces sp. strain MA37, wild type with W50F and A279R; also called A279R+W50F; FlA1+A279R+W50F
stoichiometry N [3]: 6

— paper doi:10.1101/2025.07.28.666932, “Mechanism-Guided Engineering of Fluorinase Unlocks Efficient Nucleophilic Biofluorination” (bioRxiv, 2025)
